The source of these data is article PMC4519330, “An Internally Translated MAVS Variant Exposes Its Amino-terminal TRAF-Binding Motifs to Deregulate Interferon Induction” (PLoS Pathogens, 2015).

The data set concerns the molecule itself. Description: co-IP; 293T cells co-transfected; lysates in NP40 buffer (50 mM Tris-HCl pH 7.4, 150 mM NaCl, 5 mM EDTA, 1% NP40) precipitated with anti-Flag agarose at 4°C for 4-6 hours; immunoblot. Background: A western blot detects proteins with antibodies after separation by electrophoresis.

B1: Flag-tagged MAVS50 (natural protein, human, UniProt Q7Z434 142-540, looked up)
chain: MPVQETQAPESPGENSEQALQTLSPRAIPRNPDGGPLESSSDLAALSPLTSSGHQEQDTELGSTHTAGATSSLTPSRGPVSPSVSFQPLARSTPRASRLPGPTGSVVSTGTSFSSSSPGLASAGAAEGKQGAESDQAEPIICSSGAEAPANSLPSKVPTTLMPVNTVALKVPANPASVSTVPSKLPTSSKPPGAVPSNALTNPAPSKLPINSTRAGMVPSKVPTSMVLTKVSASTVPTDGSSRNEETPAAPTPAGATGGSSAWLDSSSENRGLGSELSKPGVLASQVDSPFSGCFEDLAISASTSLGMGPCHGPEENEYKSEGTFGIHVAENPSIQLLEGNPGPPADPDGGPRPQADRKFQEREVPCHRPSPGALWLQVAVTGVLVVTLLVVLYRRRLH
notes: MAVS (mitochondrion antiviral signaling adaptor), variant of ~50 kDa from internal translation initiation at codon 142; also called MAVS50-Flag; Flag-MAVS50
As for B1, the binding result is reported as “binds”.
